As usually defined, the IC50 is the concentration at which inhibition is half-maximal.

Data on eleven molecules can be found in patent publication US7067474B1, “Agents for treating human illnesses based on β-catenin, and the production and use thereof” (Max-Delbruck-Centrum fur Molekulare Medizin, priority 1998, dated 2006).

Holding throughout (type): binding
Experiment [1] concerns the target T1, LEF-1/β-catenin interaction (Homo sapiens, UniProt P35222).
T1 construct: made in house; host or cells: bacteria
T1 sequence (P35222 1-781): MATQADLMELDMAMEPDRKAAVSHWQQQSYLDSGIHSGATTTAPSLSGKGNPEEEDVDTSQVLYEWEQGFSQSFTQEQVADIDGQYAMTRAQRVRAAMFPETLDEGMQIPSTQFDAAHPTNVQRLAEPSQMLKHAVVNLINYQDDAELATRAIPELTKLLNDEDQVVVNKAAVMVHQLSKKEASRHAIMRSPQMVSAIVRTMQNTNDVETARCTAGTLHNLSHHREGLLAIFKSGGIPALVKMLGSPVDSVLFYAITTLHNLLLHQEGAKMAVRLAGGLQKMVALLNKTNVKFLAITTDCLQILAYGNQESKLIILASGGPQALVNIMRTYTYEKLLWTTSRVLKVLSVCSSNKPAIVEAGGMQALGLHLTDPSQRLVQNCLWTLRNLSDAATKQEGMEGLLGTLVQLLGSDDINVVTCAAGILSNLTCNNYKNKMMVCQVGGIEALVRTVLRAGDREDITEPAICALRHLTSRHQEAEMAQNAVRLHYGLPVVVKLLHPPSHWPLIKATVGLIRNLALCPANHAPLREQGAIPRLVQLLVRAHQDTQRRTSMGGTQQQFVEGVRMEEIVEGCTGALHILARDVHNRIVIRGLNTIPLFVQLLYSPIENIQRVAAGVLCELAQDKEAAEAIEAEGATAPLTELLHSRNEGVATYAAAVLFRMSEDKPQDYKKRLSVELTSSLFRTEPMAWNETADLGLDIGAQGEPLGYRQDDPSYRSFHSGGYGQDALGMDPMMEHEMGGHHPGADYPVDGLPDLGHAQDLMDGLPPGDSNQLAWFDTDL
In words: ELISA: inhibition of complex formation of LEF-1 and β-catenin. The conditions noted are these: for inhibition of the interaction between LEF-1 and β-catenin (complex formation): synthetic peptides, 100 μM to 0.3 μM. An excerpt: Both proteins were produced in bacteria recombinantly with N-terminal histidine sequences, purified by means of nickel chromatography for quantifying the inhibition of the LEF-1/β-catenin interaction by synthetic peptides and (Behrens et al. 1996). The peptides were produced by the company Biosyntan with the aid of a PSSM-8 automaton (Shimadzu, Japan) applying the Fmoc/But strategy (E. Atherton and R. C. Sheppard. 1989 IRL Press. Oxford: “Solid phase peptide synthesis—a practical approach”). Approx. 50 ng of LFF-1 were absorbed in the wells of ELISA plates for 90 minutes at room temperature. Subsequently, the wells were covered with 5% dry milk powder in PBS for 16 hours at 4° C. All further steps were carried out at room temperature in PBS with 50 mM Tris HCl (pH 7.5). After washing the wells with PBS the peptide dilutions were added. The incubation with 50–100 ng of β-catenin was carried out for 10 minutes in the presence of […] BSA. The complex formation of LEF-1 and β-catenin was detected by the antibody PA2 against the carboxy terminal area of β-catenin (Huelsken et al. 1994). PA2 was added in a standard dilution of 1:5000 in 3% of dry milk powder in PBS for 10 minutes. After washing the wells with PBS a quantification was carried out by detection antibodies conjugated by peroxidase (1: 2500 in 3% of dry milk powder in PBS, Dianova) and the conversion of o-phenylenediamine was determined by photometric measurement at […]. The peptides were used in concentrations of 100 μM to 0.3 μM. To check the specificity of the inhibition of the LEF-1/β-catenin interaction β-catenin was absorbed in the wells and detected by means of the same antibodies in the presence and absence of the peptides (FIGS. 2 and 3).
For a mutation analysis of the peptides the indicated amino acids were substituted by alanine during the synthesis. The inhibition of the complex formation of β-catenin and LEF-1 was quantified as has been already described (FIG. 2).
Background: In an ELISA, binding on a coated surface is turned into a signal by an enzyme label.

The target in experiment [2] is T2, LEF-1 (Mus musculus, UniProt P27782).
T2 construct: the cDNA of LEF-1 for the amino acids 1–99; expressed in transfected cells; host or cells: yeast (two-hybrid, Matchmaker, Clontech)
Put plainly: yeast 2-hybrid: interaction of β-catenin mutants with LEF-1. On the procedure: (§1) The mutagenesis of β-catenin in the armadillo repeats 3–8 was carried out by means of the “mutagenesis kit” of the company Clontech according to the producer's record and the mutants were checked by sequencing (FIG. 5). In all mutants the original amino acid was substituted by alanine. For analyzing the interactions the cDNA of human β-catenin (armadillo repeat 3 up to the C-terminal end of the protein) coding for the amino acids Leu218–Leu7 μl or its mutants was cloned into the fusion vector for the activation domain of Gal-4 (pGAD424, Clontech). The cDNA for the binding domains of the interaction partners was cloned into the Lex-A fusion vector BTM 116. To this end, the cDNA of LEF-1 for the amino acids 1–99, conductin for the amino acids Ala342–ARG465; of human APC for the amino acids His1012–Glu1215 (APC 15 amino acid repeats) and for the amino acids Ser1259Asp 1400 (APC 20 amino acid repeats) and E-cadherin for the amino acids Gin773–Asp884 (cytoplasmatic domain) were amplified with the respective primers PCR. The interaction of the Lex-A hybrids with β-catenin and its mutants was quantified by means of the β-galactosidase reporter activity in the yeast 2-hybrid system (report: “Matchmaker”. Clontech) (Tab. 2 and FIG. 6).

The target of experiment [3] is T3, APC (20 amino acid repeats) (Homo sapiens, UniProt P25054).
T3 construct: for the amino acids Ser1259Asp 1400 (APC 20 amino acid repeats); expressed in transfected cells; host or cells: yeast (two-hybrid, Matchmaker, Clontech)
T3 sequence (P25054 1253-1394 limits assumed): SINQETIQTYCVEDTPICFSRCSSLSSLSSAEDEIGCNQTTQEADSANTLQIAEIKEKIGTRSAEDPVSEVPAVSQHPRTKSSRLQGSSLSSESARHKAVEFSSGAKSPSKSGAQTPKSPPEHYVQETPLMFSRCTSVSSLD
In words: yeast 2-hybrid: interaction of β-catenin mutants with APC 20 amino acid repeats. The following applies: yeast 2-hybrid, alanine mutants. How it is done:
as §1

Experiment [4] has as its target T4, APC (15 amino acid repeats) (Homo sapiens, UniProt P25054).
T4 construct: of human APC for the amino acids His1012–Glu1215 (APC 15 amino acid repeats); expressed in transfected cells; host or cells: yeast (two-hybrid, Matchmaker, Clontech)
T4 sequence (P25054 1006-1209 limits assumed): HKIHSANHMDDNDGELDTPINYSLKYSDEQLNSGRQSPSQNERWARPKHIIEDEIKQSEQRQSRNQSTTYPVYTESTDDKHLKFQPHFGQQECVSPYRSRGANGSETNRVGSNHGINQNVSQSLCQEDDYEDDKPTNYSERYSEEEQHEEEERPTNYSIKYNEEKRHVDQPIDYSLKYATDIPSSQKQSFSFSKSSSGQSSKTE
In words: yeast 2-hybrid: interaction of β-catenin mutants with APC 15 amino acid repeats. The following applies: for Interaction With APC-15, share of wild type β-catenin interaction: yeast 2-hybrid, alanine mutants. How it is done: as §1

For experiment [5], the target named is T5, conductin (Mus musculus, UniProt O88566).
T5 construct: conductin for the amino acids Ala342–ARG465; expressed in transfected cells; host or cells: yeast (two-hybrid, Matchmaker, Clontech)
In words: yeast 2-hybrid: interaction of β-catenin mutants with conductin. The conditions noted are these: yeast 2-hybrid, alanine mutants. How it is done: as §1

The target of experiment [6] is T6, E-cadherin (Mus musculus, UniProt P09803).
T6 construct: E-cadherin for the amino acids Gin773–Asp884 (cytoplasmatic domain); expressed in transfected cells; host or cells: yeast (two-hybrid, Matchmaker, Clontech)
Put plainly: yeast 2-hybrid: interaction of β-catenin mutants with E-cadherin. The conditions noted are these: alanine mutants. On the procedure: as §1

Structures can show the parent of a compound that is named as a salt. Where no end group is shown, it is not given here.

T5 sequence (O88566 343-465 limits assumed): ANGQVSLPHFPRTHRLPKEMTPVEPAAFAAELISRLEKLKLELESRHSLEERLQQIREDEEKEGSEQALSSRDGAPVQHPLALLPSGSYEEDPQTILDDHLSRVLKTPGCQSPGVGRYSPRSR
T6 sequence (P09803 773-884): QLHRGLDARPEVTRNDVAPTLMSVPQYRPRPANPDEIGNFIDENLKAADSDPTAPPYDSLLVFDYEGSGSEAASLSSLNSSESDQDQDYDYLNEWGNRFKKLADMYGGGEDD
T2 sequence (P27782 1-99): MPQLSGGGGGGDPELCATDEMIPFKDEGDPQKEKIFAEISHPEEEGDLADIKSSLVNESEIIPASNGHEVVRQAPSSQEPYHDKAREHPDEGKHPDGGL

On to GDPELCATDEMIPFKDEGDPQKEK [11–34], for which the “inhibition of the interaction between LEF-1 and β-catenin (complex formation)” value (shortened to “inhibition”) in experiment [1] is “inhibit specifically”.

For the molecule “Lys21: synthetic hTCF-4 N-terminal peptide with Lys21 substituted (GGDDLGANDELISFADEGEQEEK)”, the “inhibition” value in experiment [1] is on record as “has the same effect”.

For `Cn1nnnc1SCC1=C(C(=O)O)N2C(=O)C(NC(=O)[C@@H](O)c3ccccc3)C2SC1` (stereo partly shown) [cefamandole, CEFAMANDOLESODIUM SALT, reference compound], the IC50 in experiment [1] (recombinant purified proteins, 15–250 μM, FIG. 9, read-out: IC50, reduction of the complex formation of LEF-1 and β-catenin) turned out to be 25 µM.

Regarding “Asp10: synthetic hTCF-4 N-terminal peptide with Asp10 substituted by alanine (GGDALGANDELISFKDEGEQEEK)”, in experiment [1], the “inhibition” value was “stopping the inhibition”.

For “Ile35–Val56: peptide of LEF-1 with the amino acids Ile35–Val56 (IFAEISHPEEEGDLADIKSSLV)”, the “inhibition” value in experiment [1] is on record as “does not inhibit complex formation”.

Turning to “Asp15: synthetic hTCF-4 N-terminal peptide with Asp15 substituted by alanine (GGDDLGANAELISFKDEGEQEEK)”, the “inhibition” value in experiment [1] is given as “stopping the inhibition”.

Consider “Asp22: synthetic hTCF-4 N-terminal peptide with Asp22 substituted by alanine (GGDDLGANDELISFKAEGEQEEK)”, for which the “inhibition” value in experiment [1] is on record as “stopping the inhibition”.

On to ELCATDEMIPFKDE [14–27], for which, in experiment [1], the “inhibition” value was “inhibit specifically”.

Consider “Phe20: synthetic hTCF-4 N-terminal peptide with Phe20 substituted (GGDDLGANDELISAKDEGEQEEK)”, for which, in experiment [1], the “inhibition” value is listed as “has the same effect”.

B1: Lys 435: human β-catenin mutant, Lys 435 substituted by alanine (arm 8) (protein)
chain: LHNLSHHREGLLAIFKSGGIPALVKMLGSPVDSVLFYAITTLHNLLLHQEGAKMAVRLAGGLQKMVALLNKTNVKFLAITTDCLQILAYGNQESKLIILASGGPQALVNIMRTYTYEKLLWTTSRVLKVLSVCSSNKPAIVEAGGMQALGLHLTDPSQRLVQNCLWTLRNLSDAATKQEGMEGLLGTLVQLLGSDDINVVTCAAGILSNLTCNNYKNAMMVCQVGGIEALVRTVLRAGDREDITEPAICALRHLTSRHQEAEMAQNAVRLHYGLPVVVKLLHPPSHWPLIKATVGLIRNLALCPANHAPLREQGAIPRLVQLLVRAHQDTQRRTSMGGTQQQFVEGVRMEEIVEGCTGALHILARDVHNRIVIRGLNTIPLFVQLLYSPIENIQRVAAGVLCELAQDKEAAEAIEAEGATAPLTELLHSRNEGVATYAAAVLFRMSEDKPQDYKKRLSVELTSSLFRTEPMAWNETADLGLDIGAQGEPLGYRQDDPSYRSFHSGGYGQDALGMDPMMEHEMGGHHPGADYPVDGLPDLGHAQDLMDGLPPGDSNQLAWFDTDL
modifications: left off: large carriers; small tags and cut ends
Take B1: in experiment [2] (yeast 2-hybrid, alanine mutants), the “Interaction With LEF-1, share of wild type β-catenin interaction” value is given as “— (Interactions marked by — correspond to 60–100% of the wild type interaction)”. Also, the “interaction with LEF-1/TCF-4” value in experiment [2] (β-catenin mutation, in words) was “blocking the interaction”. Further, in experiment [3], the “Interaction With APC-20, share of wild type β-catenin interaction” value is “— (Interactions marked by — correspond to 60–100% of the wild type interaction)”. Moreover, the “Interaction With APC-15, share of wild type β-catenin interaction” value in experiment [4] was 30%. Moreover, in experiment [5], the “Interaction With Conductin, share of wild type β-catenin interaction” value is 42%. Also, in experiment [6], the “Interaction With E-Cadherin, share of wild type β-catenin interaction” value is “— (Interactions marked by — correspond to 60–100% of the wild type interaction)”.

B2: Arg 386: human β-catenin mutant, Arg 386 substituted by alanine (arm 6) (protein)
chain: LHNLSHHREGLLAIFKSGGIPALVKMLGSPVDSVLFYAITTLHNLLLHQEGAKMAVRLAGGLQKMVALLNKTNVKFLAITTDCLQILAYGNQESKLIILASGGPQALVNIMRTYTYEKLLWTTSRVLKVLSVCSSNKPAIVEAGGMQALGLHLTDPSQRLVQNCLWTLANLSDAATKQEGMEGLLGTLVQLLGSDDINVVTCAAGILSNLTCNNYKNKMMVCQVGGIEALVRTVLRAGDREDITEPAICALRHLTSRHQEAEMAQNAVRLHYGLPVVVKLLHPPSHWPLIKATVGLIRNLALCPANHAPLREQGAIPRLVQLLVRAHQDTQRRTSMGGTQQQFVEGVRMEEIVEGCTGALHILARDVHNRIVIRGLNTIPLFVQLLYSPIENIQRVAAGVLCELAQDKEAAEAIEAEGATAPLTELLHSRNEGVATYAAAVLFRMSEDKPQDYKKRLSVELTSSLFRTEPMAWNETADLGLDIGAQGEPLGYRQDDPSYRSFHSGGYGQDALGMDPMMEHEMGGHHPGADYPVDGLPDLGHAQDLMDGLPPGDSNQLAWFDTDL
modifications: left off: large carriers; small tags and cut ends
Take B2: the “Interaction With APC-15, share of wild type β-catenin interaction” value in experiment [4] amounted to 12%. Further, the “interaction with APC 15aa” value in experiment [4] (β-catenin mutation, in words) was “no interaction with APC 15aa”. Moreover, the “Interaction With Conductin, share of wild type β-catenin interaction” value in experiment [5] was determined as 45%. For the same molecule, the “Interaction With E-Cadherin, share of wild type β-catenin interaction” value in experiment [6] was “— (Interactions marked by — correspond to 60–100% of the wild type interaction)”.
